Key:
Type in all cases: physicochemical
azocasein [1] = experiment: Enzyme stability of the Example 6 multi-purpose composition versus trypsin or pancreatin compositions, azocasein method; details: Me-trypsin: Example 6 composition, trypsin/pancreatin: 1.4 mL of Example 3B analog in 120 mL of Example 2B
Experimental: Azocasein Method The following solutions are used in this assay: 1) Buffer solution: 0.05 M sodium phosphate buffer containing 0.9% sodium chloride, pH 7.6. 2) Substrate solution: 2 mg/ml azocasein in the buffer solution mentioned above. The assay is initiated by mixing 1 ml of an appropriately diluted (such that the enzyme activity is in the range of standard curve) enzyme composition in phosphate buffer with 2 ml of azocasein substrate solution (2 mg/ml). After incubation at 37° C. for 20 minutes, the mixture is removed from the incubator and 1 ml of trichloroacetic acid to (14% w/v) is added to stop the enzyme reaction. The mixture is vortexed well and allowed to stand at room temperature for 20 minutes. After centrifuging at 2500 rpm (with a Beckman GS-6R Centrifuge) for 15 minutes, the supernatant is filtered with a serum sampler. 2 ml of the clear yellow filtrate is then adjusted to a neutral pH with 2 ml of 0.5 N sodium hydroxide and the absorbance of 440 nm wavelength light is measured with a spectrophotometer. The amount of azocasein hydrolyzed is calculated based on a standard curve of known concentrations of azocasein solution developed under identical conditions. An enzyme activity unit (“AZ U”) is defined as that amount of enzyme which hydrolyzes 1 μg of azocasein substrate/minute at 37° C. […] The trypsin or pancreatin compositions were prepared by dispersing 1.4 mL of Example 3B (wherein Me-trypsin was replaced by either trypsin or pancreatin) in 120 mL of Example 2B. The compositions were incubated at room temperature, 30° and 35° C. At the appointed time, aliquots were tested for enzyme activity by the azocasein method. Activity levels were compared with initial levels and expressed as percent remaining activity.

azocasein [2] = experiment: Thermal stability of Me-trypsin and trypsin in a disinfecting solution (Example 5C), azocasein method; details: Example 5C composition, 50 μg/ml
Experimental: Azocasein Method The following solutions are used in this assay: 1) Buffer solution: 0.05 M sodium phosphate buffer containing 0.9% sodium chloride, pH 7.6. 2) Substrate solution: 2 mg/ml azocasein in the buffer solution mentioned above. The assay is initiated by mixing 1 ml of an appropriately diluted (such that the enzyme activity is in the range of standard curve) enzyme composition in phosphate buffer with 2 ml of azocasein substrate solution (2 mg/ml). After incubation at 37° C. for 20 minutes, the mixture is removed from the incubator and 1 ml of trichloroacetic acid to (14% w/v) is added to stop the enzyme reaction. The mixture is vortexed well and allowed to stand at room temperature for 20 minutes. After centrifuging at 2500 rpm (with a Beckman GS-6R Centrifuge) for 15 minutes, the supernatant is filtered with a serum sampler. 2 ml of the clear yellow filtrate is then adjusted to a neutral pH with 2 ml of 0.5 N sodium hydroxide and the absorbance of 440 nm wavelength light is measured with a spectrophotometer. The amount of azocasein hydrolyzed is calculated based on a standard curve of known concentrations of azocasein solution developed under identical conditions. An enzyme activity unit (“AZ U”) is defined as that amount of enzyme which hydrolyzes 1 μg of azocasein substrate/minute at 37° C. The following is an example of the stability of Me-trypsin in a disinfecting composition of the present invention as compared to an analogous composition containing trypsin. The enzymes were solubilized in the Example 5C composition. The two compositions were incubated at 35° C. or 40° C. At the appointed time, aliquots were tested for enzyme activity by the azocasein method. Activity levels were compared with initial levels and expressed as percent remaining activity.

azocasein [3] = experiment: Stability of Me-trypsin, trypsin and pancreatin in a disinfecting composition (Example 5C), azocasein method; details: Example 5C composition, 50 μg/ml (pancreatin 375 μg/ml)
Experimental: Azocasein Method The following solutions are used in this assay: 1) Buffer solution: 0.05 M sodium phosphate buffer containing 0.9% sodium chloride, pH 7.6. 2) Substrate solution: 2 mg/ml azocasein in the buffer solution mentioned above. The assay is initiated by mixing 1 ml of an appropriately diluted (such that the enzyme activity is in the range of standard curve) enzyme composition in phosphate buffer with 2 ml of azocasein substrate solution (2 mg/ml). After incubation at 37° C. for 20 minutes, the mixture is removed from the incubator and 1 ml of trichloroacetic acid to (14% w/v) is added to stop the enzyme reaction. The mixture is vortexed well and allowed to stand at room temperature for 20 minutes. After centrifuging at 2500 rpm (with a Beckman GS-6R Centrifuge) for 15 minutes, the supernatant is filtered with a serum sampler. 2 ml of the clear yellow filtrate is then adjusted to a neutral pH with 2 ml of 0.5 N sodium hydroxide and the absorbance of 440 nm wavelength light is measured with a spectrophotometer. The amount of azocasein hydrolyzed is calculated based on a standard curve of known concentrations of azocasein solution developed under identical conditions. An enzyme activity unit (“AZ U”) is defined as that amount of enzyme which hydrolyzes 1 μg of azocasein substrate/minute at 37° C. The following is an example of the stability of Me-trypsin in a disinfecting composition of the present invention as compared to analogous compositions containing trypsin or pancreatin. The enzymes were solubilized in the Example 5C composition. The compositions were stored at room temperature or 30° C. for up to 42 days. At various time points, enzyme activity was assayed using the azocasein method.

Substance: Trypsin [Native Trypsin, reference compound]
- % Remaining Activity (azocasein [1]; 30° C., 1 week): 65.7%
- % Remaining Activity (azocasein [1]; 30° C., 2 weeks): 54.6%
- % Remaining Activity (azocasein [1]; 30° C., 3 weeks): 47.1%
- % Remaining Activity (azocasein [1]; 30° C., 4 weeks): 44.9%
- % Remaining Activity (azocasein [1]; 30° C., 6 weeks): 35.8%
- % Remaining Activity (azocasein [1]; 30° C., 8 weeks): 30.4%
- % Remaining Activity (azocasein [1]; 35° C., 1 week): 30.8%
- % Remaining Activity (azocasein [1]; 35° C., 2 weeks): 19.9%
- % Remaining Activity (azocasein [1]; 35° C., 3 weeks): 13.3%
- % Remaining Activity (azocasein [1]; 35° C., 4 weeks): 12.8%
- % Remaining Activity (azocasein [1]; 35° C., 6 weeks): 8.8%
- % Remaining Activity (azocasein [1]; 35° C., 8 weeks): 5.2%
- % Remaining Activity (azocasein [1]; RT, 1 week): 93.5%
- % Remaining Activity (azocasein [1]; RT, 2 weeks): 86.8%
- % Remaining Activity (azocasein [1]; RT, 3 weeks): 82.5%
- % Remaining Activity (azocasein [1]; RT, 4 weeks): 79.5%
- % Remaining Activity (azocasein [1]; RT, 6 weeks): 71.0%
- % Remaining Activity (azocasein [1]; RT, 8 weeks): 64.2%
- % Activity Remaining (azocasein [2]; 35° C., 24 hrs): 69.9%
- % Activity Remaining (azocasein [2]; 35° C., 48 hrs): 55.9%
- % Activity Remaining (azocasein [2]; 35° C., 72 hrs): 48.5%
- % Activity Remaining (azocasein [2]; 35° C., 168 hrs): 37.6%
- % Activity Remaining (azocasein [2]; 40° C., 24 hrs): 42.4%
- % Activity Remaining (azocasein [2]; 40° C., 114 hrs): 19.4%
- % Activity Remaining (azocasein [2]; 40° C., 168 hrs): 17.4%
- % Activity Remaining (azocasein [3]; 30° C., 1 day): 90.8%
- % Activity Remaining (azocasein [3]; 30° C., 2 days): 78.7%
- % Activity Remaining (azocasein [3]; 30° C., 5 days): 66.7%
- % Activity Remaining (azocasein [3]; 30° C., 7 days): 62.4%
- % Activity Remaining (azocasein [3]; 30° C., 14 days): 52.4%
- % Activity Remaining (azocasein [3]; RT, 1 day): 102.5%
- % Activity Remaining (azocasein [3]; RT, 2 days): 101.5%
- % Activity Remaining (azocasein [3]; RT, 5 days): 98.5%
- % Activity Remaining (azocasein [3]; RT, 7 days): 93.6%
- % Activity Remaining (azocasein [3]; RT, 14 days): 85.7%
- % Activity Remaining (azocasein [3]; RT, 21 days): 79.6%
- % Activity Remaining (azocasein [3]; RT, 28 days): 74.4%
- % Activity Remaining (azocasein [3]; RT, 35 days): 73.8%
- % Activity Remaining (azocasein [3]; RT, 42 days): 61.3%

Source: patent US6358897B1, “Alkyl trypsin compositions and methods of use in contact lens cleaning and disinfecting systems” (Alcon Laboratories, Inc., priority 1996, dated 2002)
